Data: the supplement of paper PMC10567573

B1: GMCL1 (parent)
chain: FCYCAGSHKRKRSSGSFCYCHPDS
B2: FAM9B (parent)
chain: EDLTAKRKRMKMDKTCSKTKNKSK

Variants of: B1
Assay: protein stability index of a GFP-peptide fusion (GPS, HEK-293T) (PSI 1-6); higher = more stable
Conditions: c terminus: a fixed tail appended
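Also: lentivirally expressed fusions sorted by FACS into six bins by GFP to DsRed ratio, PSI derived from sequencing read proportions per bin multiplied by bin number.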

Protein stability index: each site, then its substitutions
Y3: S 2.25 | D 2.2 | G 1.7 | N 2.67 | Q 2.89 | V 2.07 | R 2.3 | A 2.37 | K 2.82 | P 1.76 | F 2.01 | C 1.75 | L 2.96 | E 2.5 | H 1.81 | M 2.02 | T 2.99 | I 2.46 | W 2.88
S7: V 1.93 | R 2.34 | L 1.89 | D 1.55 | E 2.2 | T 2.98 | W 1.9 | H 1.59 | I 1.75 | P 1.7 | K 2.29 | N 2.16 | Q 1.77 | G 1.02 | F 2.54 | Y 1.59 | M 1.98 | A 2.15 | C 2.1
R10: W 1.92 | P 1.9 | D 2.02 | A 2.48 | I 2.32 | F 1.4 | H 1.68 | S 1.82 | Y 1.85 | E 2.5 | V 1.81 | K 1.96 | G 2.27 | Q 2.29 | L 1.99 | N 2.24 | T 2.27 | M 1.9
G6: V 2.68 | R 2.05 | D 1.91 | Y 2.59 | T 1.55 | L 2.44 | S 2.39 | M 2.48 | K 1.5 | H 1.94 | N 2.92 | Q 2 | F 1.92 | W 2.84 | C 2.53 | E 1.86 | I 1.54 | P 1.34
K9: R 1.61 | Q 2.01 | C 2 | Y 2.8 | F 2.13 | V 2.57 | S 2.76 | W 2.62 | L 1.99 | G 1.57 | N 2.05 | A 1.63 | P 1.52 | I 1.94 | M 1.77 | H 1.86 | T 1.29 | E 2.14 | D 1.99
H8: V 1.89 | S 2.33 | I 1.48 | M 1.66 | L 1.1 | P 1.94 | W 2.59 | T 1.67 | F 1.97 | E 2.1 | Y 2.57 | K 1.99 | G 2.88 | C 2.37 | D 1.67 | N 2.19 | R 1.9 | Q 1.43
C4: H 1.35 | E 2.01 | I 1.56 | L 2.81 | W 2.56 | N 2.26 | P 1.53 | F 1.65 | M 2.52 | R 1.36 | A 1.29 | T 2.06 | D 1.74 | V 2.27 | K 2.07 | G 1.7 | Q 1.01 | S 2.55
A5: G 1.5 | C 1.65 | W 2.26 | K 2.53 | T 1.38 | R 1.85 | P 2.58 | E 2.33 | M 1.88 | H 2.26 | F 2.37 | Q 1.94 | D 2.38 | N 2.03 | Y 1.89 | S 2 | L 1.57 | I 3.03 | V 2.67
F1: A 4.19 | D 4.2 | E 4.31 | P 4.21 | N 3.81 | L 2.8 | C 4.1 | T 3.34 | H 3.17 | S 3.78 | R 3.85 | M 3.46 | K 3.78 | I 3.79 | V 3.65 | Y 1.55 | Q 3.82 | W 1.91
K11: T 2.22 | W 2.03 | A 1.59 | H 2.18 | C 1.77 | D 2.45 | Q 1.33 | V 1.39 | M 2.29 | G 1.97 | I 2.92 | N 1.93 | L 2.41 | E 1.87 | P 2.31 | F 1.68 | R 1.98 | Y 2.95 | S 2.85
R12: C 1.85 | H 1.96 | D 2.06 | G 1.38 | F 1.64 | E 1.15 | A 2.04
C2: W 1.79 | D 2.79 | T 2.22 | E 2.05 | H 1.81 | G 2.7 | F 2.25 | I 1.94 | N 1.27 | Q 3.31 | A 2.76 | P 1.53 | R 3.48 | M 1.51 | S 2.25 | Y 2.03 | K 2.06 | L 1.79

Variants of: B2
Assay: as above
Conditions: c terminus: a fixed tail appended

Protein stability index, by site and new letter:
T15: F 4.8 | C 5.36 | M 5.11 | A 5 | I 5.12 | W 4.78
R7: G 5.54 | T 5.46 | N 4.93 | Y 5.11 | P 5.27 | Q 5.32 | F 4.69
S23: G 5.07 | C 5.32 | T 5.31 | D 5.36 | R 5.24 | I 4.78 | W 4.47 | A 5.7
K22: Q 4.74 | L 4.39 | E 4.96 | I 3.59 | G 4.78 | C 4.92
K8: S 5.39 | Q 3.39 | L 4.38 | C 5.09 | T 4.97 | W 4.77 | R 5.15
E1: A 4.77 | I 4.08 | K 4.89 | P 4.9 | Q 4.99
S17: F 4.24 | Q 5.34 | I 5.21 | T 5.32 | N 5.85 | H 4.8 | Y 5.08 | V 4.88
A5: P 4.92
K18: S 4.78 | M 4.67 | R 4.81 | C 4.96 | F 3.92 | P 5.87 | N 5.18 | H 5.3 | L 4.75
R9: T 5.11 | A 5.33 | I 4.08 | Y 5.29 | D 5.64 | H 4.49
K11: C 4.9 | W 4.83 | R 4.97 | F 5.02 | N 4.45
T4: R 4.64 | Q 4.7 | Y 4.21 | L 4.6 | P 4.96
T19: D 4.97 | R 5.26 | V 4.7 | N 5.1 | Q 5.08
K24: I 4.68 | F 4.83 | A 5.14 | C 5.2 | G 4.19 | N 5
M10: I 5.18 | T 5.35 | G 4.71 | C 5.02 | L 5.34 | Q 5.28 | S 5.43
L3: E 5.77 | S 4.99 | A 4.91 | T 5.33 | G 5.66 | F 4.98
D13: M 3.91 | Q 5.41 | T 5.01
K20: R 4.76 | H 5.24
M12: P 5.61 | W 3.86 | D 5.18 | K 4.79 | Y 5.16
K6: Q 5.12 | M 4.67 | W 4.29 | L 4.85
C16: D 5.67 | G 4.11
N21: V 4.11 | P 4.94 | L 4.93 | A 5.23 | E 5.44
D2: W 3.49 | V 4.86
K14: W 4.73 | Q 4.99 | G 5.19 | F 4.48
